The values that follow come from patent publication US5844093, “Anti-EGFR single-chain Fvs and anti-EGFR antibodies” (Merck Patent Gesellschaft mit Beschrankter Haftung, dated 1998).

One test deals with hen egg lysozyme (hen, UniProt P00698). As to the kind of experiment: ELISA, bacterial supernatants. (In general: In an ELISA, binding on a coated surface is turned into a signal by an enzyme label.)
In a further test the target is ovalbumin (Gallus gallus (Chicken), UniProt P01012). Put plainly: ELISA, bacterial supernatants.
In test [1] the target is murine albumin (CBA strain) (murine, UniProt P07724). Put plainly: ELISA, bacterial supernatants.
Experimental: (§1) The scFvs were tested by ELISA for binding to plastic and to a panel of unrelated proteins (ovalbumin, hen egg lysozyme, cytochrome c, glyceraldehyde 3-phosphate dehydrogenase, CBA albumin, and BSA).
(§2) Supernatants containing scFvs were diluted in PBSM and added to the plates. Bound scFvs were detected using 9E10 antibody as described above. Supernatants were also tested for binding to a panel of unrelated proteins and plastic. ELISA plates were coated overnight at 100 µg/ml with ovalbumin, hen egg lysozyme, cytochrome c, glyceraldehyde 3-phosphate dehydrogenase, murine albumin (CBA strain), and BSA. Undiluted supernatants containing 2% milk powder were added in duplicate to the coated plates and bound scFvs detected as described above.
The next test concerns the target BSA (Bos taurus (Bovine), UniProt P02769). Put plainly: ELISA, bacterial supernatants.
The target of the next test is purified EGFR (human, UniProt P00533). Put plainly: ELISA, purified EGFR, bacterial supernatants.
For test [2], the target named is EGFR on EGFR-bearing tumor cells (human, UniProt P00533). Put plainly: cell ELISA on A431 and MDA MB 468 cells, bacterial supernatants.
Experimental: The scFvs were tested by ELISA for binding to three tumor cell lines. […] Cell line SK-MEL-23 is a ganglioside-bearing melanoma cell line and was included as a negative control.
Cells were grown to confluency in poly-D-lysine-treated 96 well tissue culture trays (Nunc). Cells were washed with DMEM and blocked at 37° C. for 2 h with PBS containing 2.5% BSA. After aspiration, supernatants were added to each well together with an equal volume of 2xYT media containing 4% milk powder and incubated at 40C for 1 h. Bound scFvs were detected as described above.

Numbering of substitutions follows the chain as printed.

Experimental for BSA: as §1, §2
Experimental for hen egg lysozyme: as §1, §2
Experimental for ovalbumin: as §1, §2
Experimental for purified EGFR: Binding of scFvs to EGFR. The concentrations of scFvs in bacterial supernatants were estimated and the scFvs tested by ELISA for binding to purified EGFR.
Antigen-binding ELISAs were carried out with EGFR-coated plates (2.5 µg/ml). Supernatants containing scFvs were diluted in PBSM and added to the plates. Bound scFvs were detected using 9E10 antibody as described above. Supernatants were also tested for binding to a panel of unrelated proteins and plastic. ELISA plates were coated overnight at 100 µg/ml with ovalbumin, hen egg lysozyme, cytochrome c, glyceraldehyde 3-phosphate dehydrogenase, murine albumin (CBA strain), and BSA. Undiluted supernatants containing 2% milk powder were added in duplicate to the coated plates and bound scFvs detected as described above.

B1: scFv No. S4 2D (scFv, V domains shown)
VH: EVKLQQSGPELVKPGASVKMSCKASGYAFISFVMHWVKQKPGQGLEWIGFINPYNDGTKYNEKFKDKATLTSDKSSSTAYMELSSLTSEDSAVYYCASGDYDRAMDYWGQGTTVTVSS
VL: DIELTQSPTTMAASPGEKITITCSASSSISSNYLHWYQQKPGFSPKLLIYRTSNLASGVPARFSGSGSGTSYSLTIGTMEAEDVATYYCQQGSSIPRTFGGGTKLEIKR
For the molecule B1, the binding result (with hen egg lysozyme; in the test with ovalbumin; in test [1]; with BSA) was “no binding” each time.

B2: scFv No. L2 12B (scFv, V domains shown)
VH: QVQLQESGPELVKPGALVKISCKASGYTFTSYWMHWVKQRPGQGLEWIGEIDPSDSYTNYNQKFKGKATLTVDKSSNTAYMQLSSLTSEDSAVYYCARSDYGSSHFDYWGQGTTVTVSS
VL: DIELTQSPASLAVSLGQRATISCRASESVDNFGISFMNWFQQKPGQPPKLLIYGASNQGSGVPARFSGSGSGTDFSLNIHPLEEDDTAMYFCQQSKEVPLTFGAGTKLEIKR
Turning to B2, the binding result in the test with hen egg lysozyme is listed as “no binding”; with ovalbumin, “no binding”; in test [1], “no binding”; with BSA, “no binding”; in the test with purified EGFR it was “binds”; in test [2], “binds”.

B3: scFv No. L3 11D (scFv, V domains shown)
VH: B2 VH with Q1E, E6Q, P9A, L17S, I20L, N77S
VL: not shown
Regarding B3, the binding result (with hen egg lysozyme; in the test with ovalbumin; in test [1]; with BSA) was “no binding” each time.

B4: scFv No. L2 11C (scFv, V domains shown)
VH: QVQLQESGPELVRPGASVKMSCKASGYTFTTYWIHWMKQRPGQGLQWIGMIDPSNSETRLNQNFRDKATLSVDKSSNKAYMQLSSLTSEDSAIYYCARWDYGSGHFDYWGQGTTVTVSS
VL: DIELTQSPASLAASVGETVTITCRASENIYYSLAWYQQKQGKSPQLLIYSASALEDGVPSRFSGSGSGTQYSLKINNMQPEDTATYFCKQTYDVPWTFGGGTKLEIKR
Take B4: the binding result (with hen egg lysozyme; with ovalbumin; in test [1]; in the test with BSA) was “no binding” throughout.
